Six molecules from patent US20140087995A1 (published 2014) can be followed below.

In test [1] the target is T1, human amylin receptor (amylin 3(a) receptor: human calcitonin receptor coexpressed with RAMP-3) (human, UniProt P30988 25-474; O60896 24-148).
T1 sequence (looked up) 1: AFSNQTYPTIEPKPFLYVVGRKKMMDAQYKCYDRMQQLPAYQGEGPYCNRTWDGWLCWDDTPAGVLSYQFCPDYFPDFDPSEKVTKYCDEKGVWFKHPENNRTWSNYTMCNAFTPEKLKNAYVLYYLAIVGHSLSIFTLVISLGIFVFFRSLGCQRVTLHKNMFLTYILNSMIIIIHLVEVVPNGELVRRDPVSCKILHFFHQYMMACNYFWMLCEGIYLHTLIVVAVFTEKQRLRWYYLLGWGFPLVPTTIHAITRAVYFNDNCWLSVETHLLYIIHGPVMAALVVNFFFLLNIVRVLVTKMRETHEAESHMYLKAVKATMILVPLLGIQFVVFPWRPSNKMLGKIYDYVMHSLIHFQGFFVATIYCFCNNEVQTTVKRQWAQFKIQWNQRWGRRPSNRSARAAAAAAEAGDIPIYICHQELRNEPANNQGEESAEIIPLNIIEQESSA
T1 sequence (looked up) 2: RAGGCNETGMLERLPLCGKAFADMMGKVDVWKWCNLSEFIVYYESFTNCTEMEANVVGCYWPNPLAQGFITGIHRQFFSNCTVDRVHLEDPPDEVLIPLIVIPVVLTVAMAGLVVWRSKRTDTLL
In words: cell-based or functional assay.

The target of test [2] is T2, human calcitonin receptor (human, UniProt P30988 25-474).
T2 sequence (looked up): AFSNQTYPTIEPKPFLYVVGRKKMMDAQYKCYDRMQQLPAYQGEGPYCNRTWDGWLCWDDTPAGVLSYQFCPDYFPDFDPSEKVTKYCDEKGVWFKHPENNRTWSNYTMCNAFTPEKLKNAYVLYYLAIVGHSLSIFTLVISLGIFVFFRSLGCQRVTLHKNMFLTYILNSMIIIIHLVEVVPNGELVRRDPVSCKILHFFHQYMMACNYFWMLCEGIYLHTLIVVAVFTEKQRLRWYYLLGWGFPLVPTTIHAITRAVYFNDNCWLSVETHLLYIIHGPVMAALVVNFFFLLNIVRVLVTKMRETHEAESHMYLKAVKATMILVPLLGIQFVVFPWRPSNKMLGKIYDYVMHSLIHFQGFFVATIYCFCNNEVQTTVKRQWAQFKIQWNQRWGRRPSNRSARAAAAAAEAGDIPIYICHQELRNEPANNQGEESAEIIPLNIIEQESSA
The test can be described thus: cell-based or functional assay.

Numbered stars: 1 amine (or outer) side, 2 acyl side, 3 side chain; on linkers, the order of the positions; unused ones are H or OH. Bridge positions count the residues as written; N and C are the ends. Side chains are listed from the residue outwards. Ends that are not written are not given here. * marks the point of attachment. C20 diacid = O=C(O)CCCCCCCCCCCCCCCCCCC(=O)*; γGlu = O=C(O)[C@H](CCC(=O)[*:2])N[*:1]

B1: N^ε1-[(4S)-4-carboxy-4-(19-carboxynonadecanoylamino)butanoyl]-[Arg17,Pro21,Pro27,His34]-h-amylin (peptide)
peptide: K([γGlu-C20 diacid])CNTATCATQRLANFLRHSSPNFGAIPSSTNVGHNTY-NH2
modifications: disulfide 2-7; N-terminus assumed
SMILES: CC[C@H](C)[C@H](NC(=O)[C@H](C)NC(=O)CNC(=O)[C@H](Cc1ccccc1)NC(=O)[C@H](CC(N)=O)NC(=O)[C@@H]1CCCN1C(=O)[C@H](CO)NC(=O)[C@H](CO)NC(=O)[C@H](Cc1c[nH]cn1)NC(=O)[C@H](CCCNC(=N)N)NC(=O)[C@H](CC(C)C)NC(=O)[C@H](Cc1ccccc1)NC(=O)[C@H](CC(N)=O)NC(=O)[C@H](C)NC(=O)[C@H](CC(C)C)NC(=O)[C@H](CCCNC(=N)N)NC(=O)[C@H](CCC(N)=O)NC(=O)[C@@H](NC(=O)[C@H](C)NC(=O)[C@@H]1CSSC[C@H](NC(=O)[C@@H](N)CCCCNC(=O)CC[C@H](NC(=O)CCCCCCCCCCCCCCCCCCC(=O)O)C(=O)O)C(=O)N[C@@H](CC(N)=O)C(=O)N[C@@H]([C@@H](C)O)C(=O)N[C@@H](C)C(=O)N[C@@H]([C@@H](C)O)C(=O)N1)[C@@H](C)O)C(=O)N1CCC[C@H]1C(=O)N[C@@H](CO)C(=O)N[C@@H](CO)C(=O)N[C@H](C(=O)N[C@@H](CC(N)=O)C(=O)N[C@H](C(=O)NCC(=O)N[C@@H](Cc1c[nH]cn1)C(=O)N[C@@H](CC(N)=O)C(=O)N[C@H](C(=O)N[C@@H](Cc1ccc(O)cc1)C(N)=O)[C@@H](C)O)C(C)C)[C@@H](C)O
notes: also called compound 77
Consider B1, for which the “hAmylin-R funct. EC50 (pM)” value in test [1] was 145 pM. The “hCTR funct. EC50 (pM)” value in test [2] stood at 5400 pM.

B2: N^ε1-[(4S)-4-carboxy-4-[[(4S)-4-carboxy-4-(19-carboxynonadecanoylamino)butanoyl]amino]butanoyl]-[Arg17,Pro21,Pro27,His34]-h-amylin (peptide)
peptide: K([γGlu-γGlu-C20 diacid])CNTATCATQRLANFLRHSSPNFGAIPSSTNVGHNTY-NH2
modifications: disulfide 2-7; N-terminus assumed
SMILES: CC[C@H](C)[C@H](NC(=O)[C@H](C)NC(=O)CNC(=O)[C@H](Cc1ccccc1)NC(=O)[C@H](CC(N)=O)NC(=O)[C@@H]1CCCN1C(=O)[C@H](CO)NC(=O)[C@H](CO)NC(=O)[C@H](Cc1c[nH]cn1)NC(=O)[C@H](CCCNC(=N)N)NC(=O)[C@H](CC(C)C)NC(=O)[C@H](Cc1ccccc1)NC(=O)[C@H](CC(N)=O)NC(=O)[C@H](C)NC(=O)[C@H](CC(C)C)NC(=O)[C@H](CCCNC(=N)N)NC(=O)[C@H](CCC(N)=O)NC(=O)[C@@H](NC(=O)[C@H](C)NC(=O)[C@@H]1CSSC[C@H](NC(=O)[C@@H](N)CCCCNC(=O)CC[C@H](NC(=O)CC[C@H](NC(=O)CCCCCCCCCCCCCCCCCCC(=O)O)C(=O)O)C(=O)O)C(=O)N[C@@H](CC(N)=O)C(=O)N[C@@H]([C@@H](C)O)C(=O)N[C@@H](C)C(=O)N[C@@H]([C@@H](C)O)C(=O)N1)[C@@H](C)O)C(=O)N1CCC[C@H]1C(=O)N[C@@H](CO)C(=O)N[C@@H](CO)C(=O)N[C@H](C(=O)N[C@@H](CC(N)=O)C(=O)N[C@H](C(=O)NCC(=O)N[C@@H](Cc1c[nH]cn1)C(=O)N[C@@H](CC(N)=O)C(=O)N[C@H](C(=O)N[C@@H](Cc1ccc(O)cc1)C(N)=O)[C@@H](C)O)C(C)C)[C@@H](C)O
notes: also called compound 86
As to B2, the “hAmylin-R funct. EC50 (pM)” value in test [1] amounted to 298 pM. Further, the “hCTR funct. EC50 (pM)” value in test [2] was 19200 pM.

B3: N^ε1-[(4S)-4-carboxy-4-[[(4S)-4-carboxy-4-(19-carboxynonadecanoylamino)butanoyl]amino]butanoyl]-[Glu14,Arg17,Pro21,Pro27,His34,Glu35]-h-amylin (peptide)
peptide: K([γGlu-γGlu-C20 diacid])CNTATCATQRLAEFLRHSSPNFGAIPSSTNVGHETY-NH2
modifications: disulfide 2-7; N-terminus assumed
SMILES: CC[C@H](C)[C@H](NC(=O)[C@H](C)NC(=O)CNC(=O)[C@H](Cc1ccccc1)NC(=O)[C@H](CC(N)=O)NC(=O)[C@@H]1CCCN1C(=O)[C@H](CO)NC(=O)[C@H](CO)NC(=O)[C@H](Cc1c[nH]cn1)NC(=O)[C@H](CCCNC(=N)N)NC(=O)[C@H](CC(C)C)NC(=O)[C@H](Cc1ccccc1)NC(=O)[C@H](CCC(=O)O)NC(=O)[C@H](C)NC(=O)[C@H](CC(C)C)NC(=O)[C@H](CCCNC(=N)N)NC(=O)[C@H](CCC(N)=O)NC(=O)[C@@H](NC(=O)[C@H](C)NC(=O)[C@@H]1CSSC[C@H](NC(=O)[C@@H](N)CCCCNC(=O)CC[C@H](NC(=O)CC[C@H](NC(=O)CCCCCCCCCCCCCCCCCCC(=O)O)C(=O)O)C(=O)O)C(=O)N[C@@H](CC(N)=O)C(=O)N[C@@H]([C@@H](C)O)C(=O)N[C@@H](C)C(=O)N[C@@H]([C@@H](C)O)C(=O)N1)[C@@H](C)O)C(=O)N1CCC[C@H]1C(=O)N[C@@H](CO)C(=O)N[C@@H](CO)C(=O)N[C@H](C(=O)N[C@@H](CC(N)=O)C(=O)N[C@H](C(=O)NCC(=O)N[C@@H](Cc1c[nH]cn1)C(=O)N[C@@H](CCC(=O)O)C(=O)N[C@H](C(=O)N[C@@H](Cc1ccc(O)cc1)C(N)=O)[C@@H](C)O)C(C)C)[C@@H](C)O
On to B3, for which, in test [1], the “hAmylin-R funct. EC50 (pM)” value came out at 445 pM. In test [2], the “Ratio hCT/hAmylin funct.” value was determined as 15.8 and the “hCTR funct. EC50 (pM)” value is 7050 pM.

B4: N^ε1-[(4S)-4-carboxy-4-[[(4S)-4-carboxy-4-(19-carboxynonadecanoylamino)butanoyl]amino]butanoyl]-[Glu14,Arg17,Pro21,Pro27,Pro34,Arg35]-h-amylin (peptide)
peptide: K([γGlu-γGlu-C20 diacid])CNTATCATQRLAEFLRHSSPNFGAIPSSTNVGPRTY-NH2
modifications: disulfide 2-7; N-terminus assumed
SMILES: CC[C@H](C)[C@H](NC(=O)[C@H](C)NC(=O)CNC(=O)[C@H](Cc1ccccc1)NC(=O)[C@H](CC(N)=O)NC(=O)[C@@H]1CCCN1C(=O)[C@H](CO)NC(=O)[C@H](CO)NC(=O)[C@H](Cc1c[nH]cn1)NC(=O)[C@H](CCCNC(=N)N)NC(=O)[C@H](CC(C)C)NC(=O)[C@H](Cc1ccccc1)NC(=O)[C@H](CCC(=O)O)NC(=O)[C@H](C)NC(=O)[C@H](CC(C)C)NC(=O)[C@H](CCCNC(=N)N)NC(=O)[C@H](CCC(N)=O)NC(=O)[C@@H](NC(=O)[C@H](C)NC(=O)[C@@H]1CSSC[C@H](NC(=O)[C@@H](N)CCCCNC(=O)CC[C@H](NC(=O)CC[C@H](NC(=O)CCCCCCCCCCCCCCCCCCC(=O)O)C(=O)O)C(=O)O)C(=O)N[C@@H](CC(N)=O)C(=O)N[C@@H]([C@@H](C)O)C(=O)N[C@@H](C)C(=O)N[C@@H]([C@@H](C)O)C(=O)N1)[C@@H](C)O)C(=O)N1CCC[C@H]1C(=O)N[C@@H](CO)C(=O)N[C@@H](CO)C(=O)N[C@H](C(=O)N[C@@H](CC(N)=O)C(=O)N[C@H](C(=O)NCC(=O)N1CCC[C@H]1C(=O)N[C@@H](CCCNC(=N)N)C(=O)N[C@H](C(=O)N[C@@H](Cc1ccc(O)cc1)C(N)=O)[C@@H](C)O)C(C)C)[C@@H](C)O
notes: also called compound 110
As for B4, the “hAmylin-R funct. EC50 (pM)” value in test [1] was found to be 278 pM. In addition, in test [2], the “Ratio hCT/hAmylin funct.” value amounted to 29.3 and the “hCTR funct. EC50 (pM)” value was 8160 pM.

For K([γGlu-γGlu-C20 diacid])CNTATCATQRLAEFLRHSSPNFGAIPSSTNVGPHTY-NH2 (disulfide 2-7 (inferred)), the “hAmylin-R funct. EC50 (pM)” value in test [1] stood at 172 pM. Also, in test [2], the “Ratio hCT/hAmylin funct.” value came out at 16.4 and the “hCTR funct. EC50 (pM)” value stood at 2830 pM.

B5: N^ε1-[(4S)-4-carboxy-4-[[(4S)-4-carboxy-4-(19-carboxynonadecanoylamino)butanoyl]amino]butanoyl]-[His14,Arg17,Pro21,Pro27]-h-amylin (peptide)
peptide: K([γGlu-γGlu-C20 diacid])CNTATCATQRLAHFLRHSSPNFGAIPSSTNVGSNTY-NH2
modifications: disulfide 2-7; N-terminus assumed
SMILES: CC[C@H](C)[C@H](NC(=O)[C@H](C)NC(=O)CNC(=O)[C@H](Cc1ccccc1)NC(=O)[C@H](CC(N)=O)NC(=O)[C@@H]1CCCN1C(=O)[C@H](CO)NC(=O)[C@H](CO)NC(=O)[C@H](Cc1c[nH]cn1)NC(=O)[C@H](CCCNC(=N)N)NC(=O)[C@H](CC(C)C)NC(=O)[C@H](Cc1ccccc1)NC(=O)[C@H](Cc1c[nH]cn1)NC(=O)[C@H](C)NC(=O)[C@H](CC(C)C)NC(=O)[C@H](CCCNC(=N)N)NC(=O)[C@H](CCC(N)=O)NC(=O)[C@@H](NC(=O)[C@H](C)NC(=O)[C@@H]1CSSC[C@H](NC(=O)[C@@H](N)CCCCNC(=O)CC[C@H](NC(=O)CC[C@H](NC(=O)CCCCCCCCCCCCCCCCCCC(=O)O)C(=O)O)C(=O)O)C(=O)N[C@@H](CC(N)=O)C(=O)N[C@@H]([C@@H](C)O)C(=O)N[C@@H](C)C(=O)N[C@@H]([C@@H](C)O)C(=O)N1)[C@@H](C)O)C(=O)N1CCC[C@H]1C(=O)N[C@@H](CO)C(=O)N[C@@H](CO)C(=O)N[C@H](C(=O)N[C@@H](CC(N)=O)C(=O)N[C@H](C(=O)NCC(=O)N[C@@H](CO)C(=O)N[C@@H](CC(N)=O)C(=O)N[C@H](C(=O)N[C@@H](Cc1ccc(O)cc1)C(N)=O)[C@@H](C)O)C(C)C)[C@@H](C)O
notes: also called compound 92
Consider B5, for which the “hAmylin-R funct. EC50 (pM)” value in test [1] was determined as 85 pM. Also, in test [2], the “Ratio hCT/hAmylin funct.” value was 28 and the “hCTR funct. EC50 (pM)” value amounted to 2380 pM.
